Experiment [1] addresses T1, 新型冠状病毒Alpha突变株Spike RBD蛋白 (新型冠状病毒Alpha突变株 (SARS-CoV-2 Alpha …, UniProt P0DTC2 319-537)).
T1 construct: domain: Spike RBD; also called Alpha SPIKE RBD蛋白
Description: indirect ELISA, RBD coated at 2 μg/mL. On the technique in general: In an ELISA, binding on a coated surface is turned into a signal by an enzyme label.

Experiment [2] concerns the target T2, 新型冠状病毒Beta突变株Spike RBD蛋白 (新型冠状病毒Beta突变株 (SARS-CoV-2 Beta variant), UniProt P0DTC2 319-537).
T2 construct: domain: Spike RBD; also called Beta SPIKE RBD蛋白
Briefly: indirect ELISA, RBD coated at 2 μg/mL.

Experiment [3] has as its target T3, 新型冠状病毒Delta突变株Spike RBD蛋白 (新型冠状病毒Delta突变株 (SARS-CoV-2 Delta …, UniProt P0DTC2 319-537)).
T3 construct: domain: Spike RBD; also called Delta SPIKE RBD蛋白
Description: indirect ELISA, RBD coated at 2 μg/mL.

Experiment [4] concerns the target T4, 新型冠状病毒Gamma突变株Spike RBD蛋白 (新型冠状病毒Gamma突变株 (SARS-CoV-2 Gamma …, UniProt P0DTC2 319-537)).
T4 construct: domain: Spike RBD; also called Gamma SPIKE RBD蛋白
Briefly: indirect ELISA, RBD coated at 2 μg/mL.

Experiment [5] has as its target T1, 新型冠状病毒Alpha突变株Spike RBD蛋白. Briefly: ELISA binding experiment (Fig. 3).
Experiment [6] deals with T2, 新型冠状病毒Beta突变株Spike RBD蛋白. Description: ELISA binding experiment (Fig. 3).
Experiment [7] has as its target T3, 新型冠状病毒Delta突变株Spike RBD蛋白. Briefly: ELISA binding experiment (Fig. 3).
For experiment [8], the target named is T4, 新型冠状病毒Gamma突变株Spike RBD蛋白. Briefly: ELISA binding experiment (Fig. 3).
In experiment [9] the target is 新型冠状病毒Omicron突变株Spike RBD蛋白 (新型冠状病毒Omicron突变株 (SARS-CoV-2 Omicron …, UniProt P0DTC2 319-537)).

One may read the Kd as a measure of binding affinity in units of concentration. Read a low Kd as tighter binding.

B1: 克隆号为1B12G6的抗体 (antibody, V domains shown)
VH: QVQLVQSGAEVKKPGSSVKVSCKASGGTFSSYTISWVRQAPGQGLEWLGRIIPILNIANYAQKFQGRVTITADKSTSTAYMELSSLRSEDTAVYYCARDGRASGLGATHYFDYWGQGTLVTVSS
VL: QSVLTQPPSVSGAPGQRVTISCTGSSSNIGAGYNVHWYQQLPGTAPKLLIYGNSNRPSGVPDRFSGSKSGTSASLAITGLQAEDEADYYCQSYDSSLSGSVFGGGTKLTVL
As for B1, the binding result in experiment [1], in [2], in [3] and in experiment [4] was “no binding (tested: 1 μg/mL)” each time.

B2: 克隆号为3C6E1的抗体 (antibody, V domains shown)
VH: EVQLVESGGGLIQPGGSLGLSCAASGFTVSSNYMSWVRQAPGRGLEWVSVIYGGGSTTYADSVKGRFTISRDNSKNTLNLQMNSLRAEDTAVYYCARGGRFLHVFDIWGQGTVVTVSS
VL: QSALTQPASVSGSPGQSITISCTGTSSDIGGYNYVSWYQQHPGKAPKLMIYDVTKRPSGVSNRFSGSKSGNTASLTISGLQAEDEADYHCSSYTSSSTRWVFGGGTKLTVL
As to B2, the binding result in experiment [1], in experiment [2], in [3] and in [4] was “no binding (tested: 1 μg/mL)” throughout.

B3: 克隆号为9A5C5的抗体 (antibody, V domains shown)
VH: EVQLQQSGPELVKPGASVKISCKTSGYTFTEYTMHWVKQSHGKSLEWIGGINPNNGGTTYNQKFKGKATLTVDKSSSTAYMELRSLTSEDSAVYYCARDGYSFFDYWGQGTTLTVSS
VL: DIVLTQSPASLAVSLGQRATISCRASKSVSTSGYSYMHWYQQKPGQPPKLLIYLASNLESGVPARFSGSGSGTDFTLNIHPVEEEDAATYYCQHSRELFTFGSGTKLEIK
On to B3, for which the binding result in experiment [1], in experiment [2], in experiment [3] and in [4] was “no binding (tested: 1 μg/mL)” throughout.

B4: 克隆号为3A7C12的抗体 (antibody, V domains shown)
VH: EVQLVESGGGLVKPGGSLRLSCAASGFTFSSYSMNWVRQAPGKGLEWVSSISSGSSYIYFADSVKGRFTISRDNAKNSLFLQMNSLRAEDTATYYCARAPLGYDSSGYFTMYYFDYWGQGTLVTVSS
VL: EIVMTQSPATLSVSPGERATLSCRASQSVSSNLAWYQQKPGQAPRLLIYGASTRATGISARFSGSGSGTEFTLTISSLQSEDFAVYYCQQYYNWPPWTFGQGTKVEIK
notes: also called 3A7C12克隆号抗体
In the case of B4, the binding result in [5], in experiment [6], in experiment [7] and in experiment [8] was “no binding” each time. In addition, binding in [9] was put at a Kd of 9.07 nM.

Values taken from patent publication CN114702578A (BAISI MEDICAL DIAGNOSTICS TECH BEIJING CO LTD, dated 2022).
